Measured values taken from publication PMC5523840.

Biological target: T1, TFCP2 (LBP-1c/CP2/LSF) (UniProt Q12800 1-502)
T1 sequence: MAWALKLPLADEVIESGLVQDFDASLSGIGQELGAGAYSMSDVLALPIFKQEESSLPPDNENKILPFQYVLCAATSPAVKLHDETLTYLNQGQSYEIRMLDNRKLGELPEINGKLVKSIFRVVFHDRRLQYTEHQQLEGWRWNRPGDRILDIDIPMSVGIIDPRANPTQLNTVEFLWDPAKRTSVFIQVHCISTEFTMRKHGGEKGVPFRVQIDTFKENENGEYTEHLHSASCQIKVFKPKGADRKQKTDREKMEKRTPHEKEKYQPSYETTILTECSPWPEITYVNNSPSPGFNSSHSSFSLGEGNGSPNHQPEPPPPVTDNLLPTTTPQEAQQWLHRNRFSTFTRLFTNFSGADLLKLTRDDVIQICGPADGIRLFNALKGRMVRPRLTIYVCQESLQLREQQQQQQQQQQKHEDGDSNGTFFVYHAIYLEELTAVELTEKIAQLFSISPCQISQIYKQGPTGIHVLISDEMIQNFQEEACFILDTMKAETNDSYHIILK
Test: EMSA

B1: rs2830077[A] (dsDNA)
DNA 1: GACACGCTGACTTCCAGGCAAAAGCCAGGCACAAGAGAAGC
DNA 2: GCTTCTCTTGTGCCTGGCTTTTGCCTGGAAGTCAGCGTGTC
**Q.** With B1 as the binder, how does the binding signal read?
**A.** The binding signal was 1 fold band intensity (reference for the C allele, 46% greater).
